This data set deals with T1, LuxT-6xHis (Vibrio harveyi BB120 (ATCC BAA-1116; reclassified Vibrio campbellii BB120)?), ORF:7f3e8717.
T1 sequence: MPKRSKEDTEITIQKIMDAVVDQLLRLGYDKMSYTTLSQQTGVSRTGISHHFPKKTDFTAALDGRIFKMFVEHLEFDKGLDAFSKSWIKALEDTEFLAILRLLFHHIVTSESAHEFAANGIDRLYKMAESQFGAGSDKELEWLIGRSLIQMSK
Nature of the data set: EMSA. To be noted: EMSA: 20 nM DNA probe, LuxT-6xHis dimer 20-320 nM (1x-16x); buffer, salt, pH and temperature not given (described in cited ref 18). For orientation: Mobility shift assays separate free from complexed probe on a gel.

Take “AATCATCAGTTCAATAAAAAAGAGGGCTTCAGCCCTCTTTTTTTATATATTTAATCTTGCCCTCATAATCAGTACGCTGTATTATCAATTACAACCGAACTACGTACTGTTTA (double strand) [PswrZ promoter probe]”: the binding entry is listed as “binds”.

With “GTTTGATCTGCTTAATAAATCTGGTTAAAAGTTATTAATTAACTTTAAAAAAATAACCCAAGATACTAGTGTTTTTTCAAATTCAAAGGAGAAGCTCTTGATATGGA (double strand) [PluxC control probe]”, the binding entry was “no binding”.

With “TGGCATATTTTAAGCTCTTCTCTTTGTAAATCCATCTAACTCACATTTAAATGAGGCCAGAATGAAATCATCCTCAGCATTATGTATTGTATGTCCTTG (double strand) [PluxT promoter probe]”, the binding result is reported as “binds”.
